Measurements published in patent publication US20190256582A1 (published 2019).
Read-outs that look alike come from different tables or passages of the source.

B1: ZKA25 (antibody, V domains shown)
VH: EVQLVESGGGLVRPGGSLRLSCAASGFTFRSHWMSWVRQAPGKGLEWVANIKEDGYEKYYVDSVKGRFTISRDNAKNSLYLQMKSLRAEDTAVYYCARDLRVYSGRGFDPWGQGTLVTVSS
VL: not shown
B2: ZKA15 (antibody, V domains shown)
VH: QVQLQESGPGLVKPSETLSLTCTVSGGFINSYYWSWIRQPAGKGLEWIGRIYKSGSTNYNPSLKSRVTMSLDTSKYQFSLKLRSVTAADTAVYYCARDPYGDYVKAFDIWGQGTMVTVSS
VL: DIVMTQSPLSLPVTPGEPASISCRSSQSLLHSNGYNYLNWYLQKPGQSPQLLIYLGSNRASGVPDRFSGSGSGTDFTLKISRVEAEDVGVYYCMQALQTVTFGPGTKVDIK
B3: ZKA35 (antibody, V domains shown)
VH: QVQLQESGPGLVKPSQTLSLTCTVSGGSISTGGYYWSWIRQHPGKGLEWIGYIYYSGNTYYNPSLKSRVTISVDTSKKQFSLKLSSVTAADTAVYYCAKGGGRERPFDYWGQGTLVTVSS
VL: QSVLTQPPSASGTPGQRVTISCSGSSSNIGRNYVDWYQQLPGTAPKLLIYRNNQRPSGVPERFSGSKSGTSASLAISGLRSEDEADYYCVAWDDSRSGFVVFGGGTKVTVL

Experiments:
Assay in all cases: ELISA
ZIKV NS1 [1] = target: ZIKV NS1 (Zika virus (ZIKV))
ZIKV NS1 [2] = target: ZIKV NS1 (Zika virus (ZIKV)); remark: listed apart in the source
JEV NS1 = target: JEV NS1
TBEV NS1 = target: TBEV NS1
WNV NS1 = target: WNV NS1
YFV NS1 = target: YFV NS1

Binder	EC50 (ZIKV NS1 [1])	EC50 (ZIKV NS1 [2])	EC50 (JEV NS1)	EC50 (TBEV NS1)	EC50 (WNV NS1)	EC50 (YFV NS1)
B1	2 ng/mL	2.44 ng/mL	–	–	–	–
B2	3 ng/mL	2.76 ng/mL	5500 ng/mL	4610 ng/mL	3220 ng/mL	2780 ng/mL
B3	2 ng/mL	1.74 ng/mL	–	–	–	–
